Drawing on article PMC9278655, this text covers stoichiometry N for two substances.

One test has as its target Crimson. Briefly: SEC; HPLC (LC-20A), Superdex 200 10/300 GL; 200 uL of fluorescent protein loaded at 10 uM; 0.5 mL/min; 50 mM PBS pH 7.
The next test addresses mKate2. The test is described as above.

On to Crimson, for which the stoichiometry N in the test with Crimson worked out at 2.
Regarding mKate2, the stoichiometry N in the test with mKate2 is 2.
